{"source": "paper PMC2891831", "about": "“Insight into the Mechanisms of Adenovirus Capsid Disassembly from Studies of Defensin Neutralization” (PLoS Pathogens, 2010)", "key": {"[1]": {"biological_target": "HAdV-25p (virus particle) (human adenovirus 25 (HAdV-25p))", "assay": "co-sedimentation; as a1 but one concentration, 20 µM HD5; HD5 bound expressed as percent of HD5 bound to HAdV-5 in parallel samples"}, "[2]": {"biological_target": "HAdV-51p (virus particle) (human adenovirus 51 (HAdV-51p))", "assay": "co-sedimentation; as a1 but one concentration, 20 µM HD5; HD5 bound expressed as percent of HD5 bound to HAdV-5 in parallel samples"}, "[3]": {"biological_target": "HAdV-19c (virus particle) (human adenovirus 19c (HAdV-19c))", "assay": "co-sedimentation; as a1 but one concentration, 20 µM HD5; HD5 bound expressed as percent of HD5 bound to HAdV-5 in parallel samples"}, "[4]": {"biological_target": "HAdV-7p (virus particle) (human adenovirus 7 (HAdV-7p))", "assay": "co-sedimentation; as a1 but one concentration, 20 µM HD5; HD5 bound expressed as percent of HD5 bound to HAdV-5 in parallel samples"}, "[5]": {"biological_target": "Ad5.eGFP, replication-defective HAdV-5 vector (virus particle) (human adenovirus 5 (HAdV-5)) (UniProt P04133)", "assay": "co-sedimentation; equilibrium-binding assay; HD5 serially diluted in PBS and mixed with 5 µg purified virus, 1 h on ice; virus/HD5 complex separated from unbound HD5 by ultracentrifugation on a discontinuous nycodenz gradient (50 mM NaCl, 20 mM HEPES pH 7.4, 4°C); bound HD5 quantified after SDS-PAGE (Deep Purple stain) against a standard curve; apparent affinity, no estimate of non-specific binding"}}}
{"substance": "human alpha-defensin HD5 (peptide)", "values": [{"measurement": "percent of the amount of HD5 bound to HAdV-5", "setting": "[1]", "value": 3.3, "unit": "%"}, {"measurement": "percent of the amount of HD5 bound to HAdV-5", "setting": "[2]", "value": 24.6, "unit": "%"}, {"measurement": "percent of the amount of HD5 bound to HAdV-5", "setting": "[3]", "value": 32.5, "unit": "%"}, {"measurement": "percent of the amount of HD5 bound to HAdV-5", "setting": "[4]", "value": 69.3, "unit": "%"}, {"measurement": "Kd", "setting": "[5]", "value": 14.5, "unit": "µM"}, {"measurement": "stoichiometry N (HD5 molecules per virus particle)", "setting": "[5]", "value": 2750}]}
